{
  "source": "the RNAGym collection of RNA variant scans (doi:10.1073/pnas.2313332121)",
  "parents": {"B1": {"name": "TPR t1 (parent)", "chain": "GACCAAUCUGCCCUCAGAGCUCGAGAACAUCUUCGGAUGCAGAGGAGGCAGGCUUCGGUGGCGCGAUAGCGCCAACGUCCUCAACCUCCAAUGCAUCCCACCACAUGAUGAUGCCUGAAGAGCCUUGGUUUUUUG"}},
  "data": [
    {"variants_of": "B1", "experiment": "polymerase ribozyme fitness, log enrichment relative to wild type (log ratio); higher = more active; in vitro selection for triplet polymerase activity", "procedure,_shortened": "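Mutant libraries were PCR-built and transcribed for each subunit of a heterodimeric triplet polymerase ribozyme and selected for one round in triplicate at −7 °C, frozen, before gel excision of extended constructs and streptavidin-bead capture. Input and output libraries were Illumina-sequenced, keeping genotypes with ≥10 input reads and ≥1 read per output. Fitness is a logarithmic ratio of genotype to wild-type enrichment, in base 2, using inverse-variance-weighted replicate averages.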", "values": [
      {"variant": "C49A C102G C114U C115G", "polymerase ribozyme fitness (log ratio)": -6.27},
      {"variant": "C49G G110A", "polymerase ribozyme fitness (log ratio)": -1.31},
      {"variant": "A50C G60U C97A", "polymerase ribozyme fitness (log ratio)": -5.38},
      {"variant": "C49U G71A U130C", "polymerase ribozyme fitness (log ratio)": -1.63},
      {"variant": "G51A A74G A83G G120U C123G G128U", "polymerase ribozyme fitness (log ratio)": -1.97},
      {"variant": "C49U G51A C88A", "polymerase ribozyme fitness (log ratio)": -3.64},
      {"variant": "A50C C53U G57A U96A G117A U132A", "polymerase ribozyme fitness (log ratio)": -5.61},
      {"variant": "G51A U131A", "polymerase ribozyme fitness (log ratio)": -2.2},
      {"variant": "C49U U81G U96C", "polymerase ribozyme fitness (log ratio)": -4.63},
      {"variant": "C49U A66G C73A C101A G128A", "polymerase ribozyme fitness (log ratio)": -4.92},
      {"variant": "C49A C70G U130C", "polymerase ribozyme fitness (log ratio)": -3.2},
      {"variant": "A50G C53A C72A G93C U109G", "polymerase ribozyme fitness (log ratio)": -5.37},
      {"variant": "G51C C85G", "polymerase ribozyme fitness (log ratio)": -4.34},
      {"variant": "G48U U112C A118U", "polymerase ribozyme fitness (log ratio)": 0.638},
      {"variant": "A50U U54C C73A A95C", "polymerase ribozyme fitness (log ratio)": -1.37},
      {"variant": "A50G A83C C123U", "polymerase ribozyme fitness (log ratio)": -0.187},
      {"variant": "G48U C86A C115U G120C", "polymerase ribozyme fitness (log ratio)": -2.47},
      {"variant": "A50G G63A", "polymerase ribozyme fitness (log ratio)": -0.747},
      {"variant": "G48U U78C U92A A105U A121U", "polymerase ribozyme fitness (log ratio)": -5.76},
      {"variant": "G51A G57U A83G A84U A105G U130G", "polymerase ribozyme fitness (log ratio)": -6.12},
      {"variant": "C49A C64U A66C C80A G117A", "polymerase ribozyme fitness (log ratio)": -7.53},
      {"variant": "G48U U55G G69C G93U", "polymerase ribozyme fitness (log ratio)": -2.93},
      {"variant": "C49U G61A U96A", "polymerase ribozyme fitness (log ratio)": -0.582},
      {"variant": "C49G G61A", "polymerase ribozyme fitness (log ratio)": -0.914},
      {"variant": "G51A A83C", "polymerase ribozyme fitness (log ratio)": -3.73},
      {"variant": "C49A A121U", "polymerase ribozyme fitness (log ratio)": 1.97},
      {"variant": "C49U C56U U109G", "polymerase ribozyme fitness (log ratio)": -5.37},
      {"variant": "C49A C56U G110C", "polymerase ribozyme fitness (log ratio)": -5.23},
      {"variant": "C49G G69A A119U U133A", "polymerase ribozyme fitness (log ratio)": -3.06},
      {"variant": "C49A C124A", "polymerase ribozyme fitness (log ratio)": 1.63},
      {"variant": "C49U C53U C97U", "polymerase ribozyme fitness (log ratio)": -1.14},
      {"variant": "C49U G60A C97G", "polymerase ribozyme fitness (log ratio)": -5.67},
      {"variant": "G51A A68C C79G C80G A84C C124G G128C", "polymerase ribozyme fitness (log ratio)": -7.23},
      {"variant": "C49U A50G G51A U54G G61A U112C", "polymerase ribozyme fitness (log ratio)": -0.096},
      {"variant": "A50C G61U C79G U129C", "polymerase ribozyme fitness (log ratio)": -2.24},
      {"variant": "C49G C85G", "polymerase ribozyme fitness (log ratio)": -2.67},
      {"variant": "A50U C85A", "polymerase ribozyme fitness (log ratio)": -2.11},
      {"variant": "G51A A84C", "polymerase ribozyme fitness (log ratio)": -2.3},
      {"variant": "G51C C56A G77U U78A", "polymerase ribozyme fitness (log ratio)": -3.51},
      {"variant": "A50C U106A G110A G127C", "polymerase ribozyme fitness (log ratio)": -3.34},
      {"variant": "A50C G71U C101G", "polymerase ribozyme fitness (log ratio)": -2.67},
      {"variant": "G48U G61U U112C", "polymerase ribozyme fitness (log ratio)": 1.56},
      {"variant": "C49U C76U U81A C88A", "polymerase ribozyme fitness (log ratio)": -3.72},
      {"variant": "C49A C64U", "polymerase ribozyme fitness (log ratio)": -0.082},
      {"variant": "C49G G120U C124A G135U", "polymerase ribozyme fitness (log ratio)": -1.63},
      {"variant": "A50G G51A C72G C88U G110U", "polymerase ribozyme fitness (log ratio)": -5.05},
      {"variant": "A50C C53U C56A", "polymerase ribozyme fitness (log ratio)": -0.754},
      {"variant": "C49G G93A", "polymerase ribozyme fitness (log ratio)": -1.26},
      {"variant": "G48U G71C", "polymerase ribozyme fitness (log ratio)": -1.77},
      {"variant": "A50U C79G G110A G122C", "polymerase ribozyme fitness (log ratio)": -6.04},
      {"variant": "C49U U59A U78C A84G", "polymerase ribozyme fitness (log ratio)": -1.51},
      {"variant": "C49A G69A G77A G122A", "polymerase ribozyme fitness (log ratio)": -4.61},
      {"variant": "C49A C82U G93C C99U G122U", "polymerase ribozyme fitness (log ratio)": -3.82},
      {"variant": "A50U G61A", "polymerase ribozyme fitness (log ratio)": -1.36},
      {"variant": "A50U G61U", "polymerase ribozyme fitness (log ratio)": -0.766},
      {"variant": "A50C C56G", "polymerase ribozyme fitness (log ratio)": -0.303},
      {"variant": "C49A G51U G52U A90G A119U", "polymerase ribozyme fitness (log ratio)": -2.42},
      {"variant": "G48U C82G U92G", "polymerase ribozyme fitness (log ratio)": -4.41},
      {"variant": "C49G G57U G63A A119G U133G", "polymerase ribozyme fitness (log ratio)": -0.878},
      {"variant": "G48U U81G A91G G117U A119U", "polymerase ribozyme fitness (log ratio)": -7.47},
      {"variant": "A50U C114A", "polymerase ribozyme fitness (log ratio)": -3.11},
      {"variant": "C49U C62U A118U", "polymerase ribozyme fitness (log ratio)": -0.00141},
      {"variant": "A50U U78G A90U", "polymerase ribozyme fitness (log ratio)": -3.54},
      {"variant": "G51A C82U C124U", "polymerase ribozyme fitness (log ratio)": 0.555},
      {"variant": "A50C C64U G77A", "polymerase ribozyme fitness (log ratio)": -0.681},
      {"variant": "C49G C76U U87C", "polymerase ribozyme fitness (log ratio)": -1.3},
      {"variant": "A50G C88A C104U G113U U129C", "polymerase ribozyme fitness (log ratio)": -4.06},
      {"variant": "A50U C73A C80G C85A A90G G127U", "polymerase ribozyme fitness (log ratio)": -2.82},
      {"variant": "C49G G93A U133A", "polymerase ribozyme fitness (log ratio)": -0.83},
      {"variant": "C49A G69C A83C A84U", "polymerase ribozyme fitness (log ratio)": -4.35},
      {"variant": "G51A C53G", "polymerase ribozyme fitness (log ratio)": -2.12},
      {"variant": "G48U G61U G93U U112A C124A", "polymerase ribozyme fitness (log ratio)": -0.694},
      {"variant": "A50G G63U U130A", "polymerase ribozyme fitness (log ratio)": -2.47},
      {"variant": "C49A C56U", "polymerase ribozyme fitness (log ratio)": 0.0901},
      {"variant": "A50C G110A", "polymerase ribozyme fitness (log ratio)": -2.37},
      {"variant": "C49A U55G A74C U81G A90G G117U", "polymerase ribozyme fitness (log ratio)": -2.62},
      {"variant": "C49U G51U C62U C80A G113A C124A", "polymerase ribozyme fitness (log ratio)": -3.94},
      {"variant": "A50G C62A C99U", "polymerase ribozyme fitness (log ratio)": -6.11},
      {"variant": "C49A U81A U87G", "polymerase ribozyme fitness (log ratio)": -0.13},
      {"variant": "A50G G77U C86G", "polymerase ribozyme fitness (log ratio)": -1.1},
      {"variant": "G48U G61U C88U G110A", "polymerase ribozyme fitness (log ratio)": -1.73},
      {"variant": "C49U C79G C104A", "polymerase ribozyme fitness (log ratio)": -5.16},
      {"variant": "C49G C101A", "polymerase ribozyme fitness (log ratio)": -1.3},
      {"variant": "C49G A50U C72A C94A", "polymerase ribozyme fitness (log ratio)": -2.42}
    ]}
  ]
}
